Data published in publication PMC13570301 (2026).

B1: CHIP wild type, recombinant, C-terminal His tag (pET30-CHIP-His) (enzyme)
chain: MKGKEEKEGGARLGAGGGSPEKSPSAQELKEQGNRLFVGRKYPEAAACYGRAITRNPLVAVYYTNRALCYLKMQQHEQALADCRRALELDGQSVKAHFFLGQCQLEMESYDEAIANLQRAYSLAKEQRLNFGDDIPSALRIAKKKRWNSIEERRIHQESELHSYLSRLIAAERERELEECQRNHEGDEDDSHVRAQQACIEAKHDKYMADMDELFSQVDEKRKKRDIPDYLCGKISFELMREPCITPSGITYDRKDIEEHLQRVGHFDPVTRSPLTQEQLIPNLAMKEVIDAFISENGWVEDY
B2: CHIP P228S, recombinant, C-terminal His tag (enzyme)
chain: MKGKEEKEGGARLGAGGGSPEKSPSAQELKEQGNRLFVGRKYPEAAACYGRAITRNPLVAVYYTNRALCYLKMQQHEQALADCRRALELDGQSVKAHFFLGQCQLEMESYDEAIANLQRAYSLAKEQRLNFGDDIPSALRIAKKKRWNSIEERRIHQESELHSYLSRLIAAERERELEECQRNHEGDEDDSHVRAQQACIEAKHDKYMADMDELFSQVDEKRKKRDISDYLCGKISFELMREPCITPSGITYDRKDIEEHLQRVGHFDPVTRSPLTQEQLIPNLAMKEVIDAFISENGWVEDY
B3: CHIP G33S, recombinant, C-terminal His tag (enzyme)
chain: MKGKEEKEGGARLGAGGGSPEKSPSAQELKEQSNRLFVGRKYPEAAACYGRAITRNPLVAVYYTNRALCYLKMQQHEQALADCRRALELDGQSVKAHFFLGQCQLEMESYDEAIANLQRAYSLAKEQRLNFGDDIPSALRIAKKKRWNSIEERRIHQESELHSYLSRLIAAERERELEECQRNHEGDEDDSHVRAQQACIEAKHDKYMADMDELFSQVDEKRKKRDIPDYLCGKISFELMREPCITPSGITYDRKDIEEHLQRVGHFDPVTRSPLTQEQLIPNLAMKEVIDAFISENGWVEDY

Each binder was assayed against UBE2D2 (1–147), from the plasmid pHis//2 Hs UBE2D2 (1–147) (human, UniProt P62837 1-147) (assay: BLI).
UBE2D2 (1–147), from the plasmid pHis//2 Hs UBE2D2 (1–147), sequence (P62837 whole entry): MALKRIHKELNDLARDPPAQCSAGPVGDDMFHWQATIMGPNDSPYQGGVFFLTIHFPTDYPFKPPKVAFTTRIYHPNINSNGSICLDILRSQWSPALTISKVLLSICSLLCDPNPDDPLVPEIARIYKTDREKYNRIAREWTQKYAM

Row | Binder | Kd
1 | B1 | 14.3 µM
2 | B2 | 44.9 µM
3 | B3 | 24.2 µM
